Test results taken from patent US20220267427A1 (SYSMEX, published 2022).
Where no end group is shown, it is not given here. The star is where a group is joined. Biotin = O=C1N[C@H]2[C@H](CS[C@H]2CCCCC(=O)*)N1

How the values were obtained:
Peptide 3 = target: T1, Peptide 3 (human); assay: solid phase ELISA; biotinylated peptide on plate, antibody 2 ug/ml
T1 peptide: Biotin-APKSQDLAKIMADIRAQY
Experimental: (§1) (1) The peptides shown in Table 2 were synthesized, and biotin was added to the N-terminal side. (2) The synthesized peptides were dissolved in 80% DMSO solution and further diluted to 1 μg/ml with PBST. (3) After washing an ELISA plate three times with PBST, a biotinylated peptide was added thereto at 100 μL/well, and the plate was allowed to stand at room temperature for 1 hour to immobilize the peptide. Thereafter, the plate was washed three times with PBST, and Buffer I′ (10 mM NaH₂PO₄.2H₂O, 149.7 mM NaCl, 2.5 mM EDTA 2Na, 0.10% BSA, pH 7.0) was added thereto at 200 μL/well to prepare a plate stored at 4° C. overnight. (4) The plate was washed three times with PBST, and an antibody diluted to 2 μg/ml was added thereto at 50 μL/well, followed by shaking at room temperature for 1 hour. (5) The plate was washed three times with PBST, and an Anti-Mouse IgG POD antibody diluted about 5000 fold with Buffer I′ (10 mM NaH₂PO₄.2H₂O, 149.7 mM NaCl, 2.5 mM EDTA 2Na, 0.10% BSA, pH 7.0) was added thereto at 50 μL/well, followed by shaking at room temperature for 1 hour. (6) The plate was washed three times with PBST, TMB Mix (1-step Ultra TMB-ELISA (Thermo Scientific):3% H₂O₂: Phosphate-Citrate buffer (Sigma)=15:0.15:14.85) was added thereto at 100 μL/well, and the mixture was reacted at room temperature for 10 minutes. Thereafter, 1 M H₂SO₄ was added thereto at 100 μL/well to stop the reaction. (7) Absorbance of the reaction solution at 450 nm was measured with a plate reader.

Peptide 4 = target: T2, Peptide 4 (human); assay: as above
T2 peptide: Biotin-LAKIMADIRAQYDELARK
Experimental: as §1

Peptide 5 = target: T3, Peptide 5 (human); assay: as above
T3 peptide: Biotin-DIRAQYDELARKNREELD
Experimental: as §1

Peptide 6 = Peptide 6 (human, biotin added to the N-terminal side); assay: as above
Experimental: as §1

Peptide 7 = target: T4, Peptide 7 (human); assay: as above
T4 peptide: Biotin-NREELDKYWSQQIEESTT
Experimental: as §1

Peptide 8 = Peptide 8 (human, biotin added to the N-terminal side); assay: as above
Experimental: as §1

Peptide 9 = target: T5, Peptide 9 (human); assay: as above
T5 peptide: Biotin-IEESTTVVTTQSAEVGAA
Experimental: as §1

Peptide 10 = target: T6, Peptide 10 (human); assay: as above
T6 peptide: Biotin-VVTTQSAEVGAAETTLTE
Experimental: as §1

Peptide 11 = target: T7, Peptide 11 (human); assay: as above
T7 peptide: Biotin-AEVGAAETTLTELRRTVQ
Experimental: as §1

Peptide 12 = target: T8, Peptide 12 (human); assay: as above
T8 peptide: Biotin-ETTLTELRRTVQSLEIDL
Experimental: as §1

Peptide 13 = target: T9, Peptide 13 (human); assay: as above
T9 peptide: Biotin-LRRTVQSLEIDLDSMRNL
Experimental: as §1

Peptide 14 = target: T10, Peptide 14 (human); assay: as above
T10 peptide: Biotin-SLEIDLDSMRNLKASLEN
Experimental: as §1

Peptide 15 = target: T11, Peptide 15 (human); assay: as above
T11 peptide: Biotin-DSMRNLKASLENSLREVE
Experimental: as §1

Peptide 16 = target: T12, Peptide 16 (human); assay: as above
T12 peptide: Biotin-KASLENSLREVEARYALQ
Experimental: as §1

Peptide 17 = target: T13, Peptide 17 (human); assay: as above
T13 peptide: Biotin-SLREVEARYALQMEQLNG
Experimental: as §1

Peptide 18 = target: T14, Peptide 18 (human); assay: as above
T14 peptide: Biotin-ARYALQMEQLNGILLHLE
Experimental: as §1

Peptide 25 = target: T15, Peptide 25 (human); assay: as above
T15 peptide: Biotin-VKLEAEIATYRRLLEDGE
Experimental: as §1

Peptide 26 = target: T16, Peptide 26 (human); assay: as above
T16 peptide: Biotin-IATYRRLLEDGEDFNLGD
Experimental: as §1

Peptide 27 = target: T17, Peptide 27 (human); assay: as above
T17 peptide: Biotin-LLEDGEDFNLGDALD
Experimental: as §1

[1] = target: T18, fCK18 in apoptosis-induced HepG2 cell culture supernatant (human, UniProt P05783 239-397); assay: plate ELISA with K18-624 magnetic microbeads, K18-328Fab-ALP detector; fCK18 20.27 ng/mL
T18 construct: Natural CK18 fragment from the culture supernatant of apoptosis-induced HepG2 cells (band around 18 KDa); also called fCK18 in apoptosis-inducing cells
T18 sequence: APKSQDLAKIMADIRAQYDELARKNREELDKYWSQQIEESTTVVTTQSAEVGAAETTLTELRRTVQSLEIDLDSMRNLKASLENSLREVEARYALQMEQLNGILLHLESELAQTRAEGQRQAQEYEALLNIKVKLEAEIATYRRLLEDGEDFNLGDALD
Experimental: Measurement samples of 3-fold dilution series (3-fold to 6561-fold dilution) were prepared from the apoptosis-induced HepG2 cell culture supernatant with a diluent (TBS, pH 7.5, 2% BSA), and fCK18 was measured. […] Based on the prepared calibration curve, fCK18 in the measurement sample was measured.
This solution was added to an ELISA plate at 25 μL/well, then each measurement sample was added at 25 μL/well, and the plate was incubated (1500 rpm, RT, 20 min). […] (3) After washing the plate, the HISCL (registered trademark) R4 reagent was added thereto at 50 μL/well, and then the mixture was stirred (1500 rpm, RT, 1 min). Thereafter, the HISCL (registered trademark) R5 reagent was added at 100 μL/well, and then the mixture was stirred (1000 rpm, RT, 10 sec). (4) Luminescence intensity was measured with a plate reader.

Binder | Abs450 (Peptide 3) | Abs450 (Peptide 4) | Abs450 (Peptide 5) | Abs450 (Peptide 6) | Abs450 (Peptide 7) | Abs450 (Peptide 8) | Abs450 (Peptide 9) | Abs450 (Peptide 10) | Abs450 (Peptide 11) | Abs450 (Peptide 12) | Abs450 (Peptide 13) | Abs450 (Peptide 14) | Abs450 (Peptide 15) | Abs450 (Peptide 16) | Abs450 (Peptide 17) | Abs450 (Peptide 18) | Abs450 (Peptide 25) | Abs450 (Peptide 26) | Abs450 (Peptide 27) | S/N ratio [1]
K18-328 antibody (antibody, V domains shown, Mouse monoclonal antibody from a hybridoma (immunogen full length rCK18)) VH: QVHLQQSAAELARPGASVKMSCKASGYTFTNYTIHWIKQRPGQGLEWIGYINPSSGYTDYNQNFKDKTTLTADKSSTTVYMQLSSLTSEDSAVYYCARQIPFAYWGQGTLVTVSA VL: not shown | 0.04 | 0.01 | -0.01 | 0.01 | 0 | -0.01 | -0.01 | 0 | 0.01 | 0 | 0.01 | -0.01 | 0 | 0.04 | 1.55 | 0.02 |  |  |  | 
K18-624 antibody (antibody, V domains shown, Mouse monoclonal antibody from a hybridoma (Balb/C mouse immunised with Peptide 1-KLH)) VH: DVQLVESGGGLVQPGGSRKLSCAASGFTFSSFGMHWVRQAPEKGLEWVAYISSGSTTIYYADTVKGRFTISRDNPKNTLFLQMTSLRSEDTAMYYCARRGMITTGAWFAYWGQGTLVTVSA VL: DILLTQSPAILSVSPGERVSFSCRASQRIGTSIHWYQQRTNGSPRLLIKYASESISGIPSRFSGSGSGTDFTLSINSVESEDIADYYCQQSYIWPFTFGSGTKLEIK |  |  |  |  |  |  |  |  |  |  |  |  |  |  |  |  | 0.14 | 0.14 | 2.34 | 525
